Assay: yeast display, Sf9 membrane polyspecificity reagent, FACS + sequencing; frameworks hold sequencing errors
Method in brief: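 Nanobodies came from a synthetic yeast display library in Saccharomyces cerevisiae BJ5465, induced with galactose for 36–48 hours and stained for 1 hour at 4 °C with 10% biotinylated, detergent-solubilized Sf9 membrane reagent. Cells were enriched on streptavidin microbeads and then FACS-sorted, with low and high (top ~1%) gates set on anti-HA fluorescence for expression and streptavidin fluorescence for reagent binding. Each polyreactivity label reflects the gate a clone came from. Genes were amplified by colony PCR, sequenced by MiSeq 2 × 250 and filtered by CDR length.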

In the case of “QVQLVESGGGLVQAGGSLRLSCAASGRTIAPYAMGSYRQAPGKERELVAAITYSGGSTYYADSVKGRFTISRDNAKNTVYLQMNSLKPEDTAVYYCAVDTTTSYTVEYDYWGQGTQVTVSS”, the “polyreactivity (PSR sort gate)” value is reported as “low polyreactivity”.

In the case of “QVQLVESGGGLVQAGGSLRLSCAASGRTIASYTMGWYRPAPGKERDLVAAISKSGGSTYYADSVKGRFTISRDNSKNTVYLQMNSLKPEDTAVYYCNAVGARVASATGMEYWGQGTQVTVSS”, the “polyreactivity (PSR sort gate)” value is reported as “high polyreactivity”.

For “QVQLVESGGGLVQAGGSLRLSCAASGRTIDRNAMGWYRQPPGKERELVAAISGSGGRTYYADSVKGRFTISRDNEKNSVYLQMNSLKPEDTAVYYCAARVGSSPSKSKYDYWGQGTQVTVSS”, the “polyreactivity (PSR sort gate)” value was “high polyreactivity”.

With “QVQLVESGGGLVQAGGSLRLSCAASGRTIDSNAMGWYRQAPGKERELVATIDRGGSTNYADSVKGRFTISRDNAKNTVYLQMNSLKPEDTAVYYCATRGHYHAFYYTYPRYDSWGQGTQVTVSS” the “polyreactivity (PSR sort gate)” value was “low polyreactivity”.

In the case of “QVQLVESGGGLVQAGGSLRLSCAASGRTIDYNGMGSYRQAPGKERELVAVISSSGGSTFYADSVKGRFTISRDNAKNTVYLQMNSLKPVDTAVYYCAADFIVAYTLHGSYDYWGQGTQVTVSS”, the “polyreactivity (PSR sort gate)” value is reported as “low polyreactivity”.

In the case of “QVQLVESGGGLVQAGGSLRLSCAASGRTIGGNAMGRYRQAPGKERELVAAISWSGGRTYYADSVKGRFTISRDNAKNTVYLQMNSLKPEDTAVYYCNKVGYGFHGDYDYWGQGTQVTVSS”, the “polyreactivity (PSR sort gate)” value is reported as “high polyreactivity”.

For “QVQLVESGGGLVQAGGSLRLSCAASGRTIGIYAMGLYRQAPGKERELVAAITWSGDSTYYADSVKGRFTISRDNAKNTVYLQMNSLKPEDTAVYYCAAYYLYRYQTMGYWGQGTLVTVSS”, the “polyreactivity (PSR sort gate)” value was “low polyreactivity”.

With “QVQLVESGGGLVQAGGSLRLSCAASGRTIGLYGMGWYRQAPGKEREFDAAITRRGGSTYYADSVKGRFTISRDHAKNTVYLQMNSLKPEDTADYYCAAGYSSRYRGGLDYWGQGTQVTVSS” the “polyreactivity (PSR sort gate)” value was “high polyreactivity”.

With “QVQLVESGGGLVQAGGSLRLSCAASGRTIGVYAMGWYRQAPGKERELVAAISWSGGTTYYADSVKGRFTISRDNAKNTVYLQMNSLKPEDTAVYYCDADSYTEVDYWGQGTQVTVSS” the “polyreactivity (PSR sort gate)” value was “low polyreactivity”.

In the case of “QVQLVESGGGLVQAGGSLRLSCAASGRTIGYNAMGWYRQAPGKERELVAAITRSAGITYYADSVKGRFTISRDNAKNTVYLQLNSLKPEDTAVYYCNKRVVYRSSLFDYWGQGTQVTVSS”, the “polyreactivity (PSR sort gate)” value is reported as “low polyreactivity”.

In the case of “QVQLVESGGGLVQAGGSLRLSCAASGRTINGNTMGWYRQAPGKERELVAVIDWSGGSTYYADSVKGRFTISRDTAKNTVYLQMNSLKPEDTAVYFCATVSGYAYYYWGQGTQVTVSS”, the “polyreactivity (PSR sort gate)” value is reported as “low polyreactivity”.

With “QVQLVESGGGLVQAGGSLRLSCAASGRTIPFYAMGWYRQAPGKERELVAAISSSAGRTYYADSVKGRFSISRDNAKNTVYLQLNSLKPEDTAVYYCAARLYCRYRYDYWGQGTQVTVSS” the “polyreactivity (PSR sort gate)” value was “low polyreactivity”.

For “QVQLVESGGGLVQAGGSLRLSCAASGRTIPHNAMGWYRQAPGKERQLVATITAGSGSTYYADSVKGRFTISRDNAKNTVSLQLNSLKPEDTAVYYCNAKWTLYQSDYWYYIYDYWGQGTQVTVSS”, the “polyreactivity (PSR sort gate)” value was “low polyreactivity”.

For “QVQLVESGGGLVQAGGSLRLSCAASGRTIQTYAMGWYRQAPRKERELVAAITSSGGSTYYADSVKGRFTISRDNAKNTVYLQMNSLIPEDSAVYYWSAYRRIRVGVPVRTYYYWGQGTQVTVSS”, the “polyreactivity (PSR sort gate)” value was “high polyreactivity”.

With “QVQLVESGGGLVQAGGSLRLSCAASGRTIQYNAMGWYRQAPGKERQLVAAISSSGGSTYYADSVKGRFTISRDNAKNTVYLQMNSLKPEDTAVYYCNAYSQSWNFYGDGDYWGQGTQVTVSS” the “polyreactivity (PSR sort gate)” value was “low polyreactivity”.

In the case of “QVQLVESGGGLVQAGGSLRLSCAASGRTIRAYTMGWYRQAPGNERELVAAISTPGGSTYYADSVKGRFTISRDNAKNTVYLQLNSLKPEDTAVYYCAADYGGPITGYEYWGQGTQVTVSS”, the “polyreactivity (PSR sort gate)” value is reported as “low polyreactivity”.

In the case of “QVQLVESGGGLVQAGGSLRLSCAASGRTIRVYAMGWYRQAPGKERELVARINFRGGSTRYADSVKGRFTISRDNAKNTVYLQMNSLKPEDTAVYYCAARPSSFYYSNGFDYWGQGTQVTVSS”, the “polyreactivity (PSR sort gate)” value is reported as “high polyreactivity”.

In the case of “QVQLVESGGGLVQAGGSLRLSCAASGRTIRYNALGWYREARGKERELVASIRRGGSTNYADSVKGRCTISRDNAKNPVYLHMNSLKPEDTAVSYCAAAGGGVRKVWGGSRYGYWGQGTQVTVSS”, the “polyreactivity (PSR sort gate)” value is reported as “high polyreactivity”.

With “QVQLVESGGGLVQAGGSLRLSCAASGRTIRYYAMGWYRQAPGKERELVAAITSGGSTYYADSVKGRFTISRDNAKNTVYLQMNSLKPEDTAVYYCAAARYEPFIYDYGYWGQGTQVTVSS” the “polyreactivity (PSR sort gate)” value was “low polyreactivity”.

With “QVQLVESGGGLVQAGGSLRLSCAASGRTIRYYTMGWYRQAPGKERELVATIRRGRTTYYADSVKGRFTISRDNEKNTVYLQMYSLKPEDTAVYYCAADFPSAEVDYWGQGTQVTVSS” the “polyreactivity (PSR sort gate)” value was “low polyreactivity”.

With “QVQLVESGGGLVQAGGSLRLSCAASGRTIVYNAMGWYRQAPGKERELVAAITSRGGSTHYADSVKGRFTISRDNAKNTVYLQMNSLKPEDTAVYYCAADFLSPAYRPSWYRFDYWGQGTQVTVSS” the “polyreactivity (PSR sort gate)” value was “low polyreactivity”.

For “QVQLVESGGGLVQAGGSLRLSCAASGRTIWWYAMGWYRQAPGKERELVADITWIGGSTYYADSVKGRFTISRDNAKNTVYLQMNSLKPEDTAVYYCATDKDDVSDLGKDYAYFEYDYWGQGTQVTVSS”, the “polyreactivity (PSR sort gate)” value was “low polyreactivity”.

For “QVQLVESGGGLVQAGGSLRLSCAASGRTIWYNAMGWYRQAPGKERELVAVISSGAITYYADSVKGRFTFSRDNGKNTVYLQMNSLKPEDTAFYYCAARSYLSLIDYWGQGTQVNVSS”, the “polyreactivity (PSR sort gate)” value was “high polyreactivity”.

For “QVQLVESGGGLVQAGGSLRLSCAASGRTIYQNAMGWYRQAPGKEREFVAAITGGTGSTHYADSVKGRFTISRDNAKITVYLQMNSLKPEDSAVYYCATRYLFGFSRYDYWGQGTQVTVSS”, the “polyreactivity (PSR sort gate)” value was “low polyreactivity”.

With “QVQLVESGGGLVQAGGSLRLSCAASGRTIYRYGMGWYRQAPGKERELVADITWRGDSTYYADSVKGRFTISRDNAKNTVYLQMNCLKPEDTAVYYCATRPRGYRWGKLYDYWGQGTQVTVSS” the “polyreactivity (PSR sort gate)” value was “high polyreactivity”.

For “QVQLVESGGGLVQAGGSLRLSCAASGRTIYTYAMGWYRQAPGKERELVAAITKRGGSTYYADSVKGRFTISRDNAQNTVYLQMNSLKPEDTAVYYCNKELATARGQSLYRTYSGYGYWGQGTQVTVSS”, the “polyreactivity (PSR sort gate)” value was “high polyreactivity”.

In the case of “QVQLVESGGGLVQAGGSLRLSCAASGRTIYYYAMGLYRQAPGKERELVAAISSSGSTTYYADSVKGRFTISRDNAKNTVYLQMNSLKPEDTAVYYCAASYVYRVDDDYWGLGTQVTVSS”, the “polyreactivity (PSR sort gate)” value is reported as “low polyreactivity”.

In the case of “QVQLVESGGGLVQAGGSLRLSCAASGRTIYYYAMGWYRQAPGKEREFVAAISWHGGSTYYADSVKGRFTISRDNAKNNVYLQMNSLKPEDTAVYYCAADIYLRGFHYDYWGQGTQVTVSS”, the “polyreactivity (PSR sort gate)” value is reported as “low polyreactivity”.

With “QVQLVESGGGLVQAGGSLRLSCAASGRTIYYYAMGWYRQAPGKEREFVAAISWHGGSTYYADSVKGRFTISRDNAKNTVYLQMNSLKPEDTAVYYCAAERYDRVGFDYWGQGTQVTVSS” the “polyreactivity (PSR sort gate)” value was “low polyreactivity”.

In the case of “QVQLVESGGGLVQAGGSLRLSCAASGRTLAENAMGWYRQAPGKERELVAAISSIGGRTYYADSVKGRFTISRDNAKNTVYLQMNSLKPEDTAVYYCAATLRTKSARYNYWGQGTQVTVSS”, the “polyreactivity (PSR sort gate)” value is reported as “high polyreactivity”.

For “QVQLVESGGGLVQAGGSLRLSCAASGRTLATYAMGWYRQAPGKERELVAAISTSGTRTYYADSVKGRFTISRDNAKNTVYLQMNSLKPEDTAVYYCNAGPGYDYWGHGTQVTVSS”, the “polyreactivity (PSR sort gate)” value was “high polyreactivity”.

From the nanobody polyreactivity screen of Harvey et al. (2022)
